Source: the supplement of paper PMC11908140

B1: library; numbered along this chain (parent)
chain: MRKPRAAVGSGHRKQAASQEGRQKHAKNNSQAKPSACDGLARQPEEVVLQASVSSYHLFRDVAEVTAFRGSLLSWYDQEKRDLPWRRRAEDEMDLDRRAYAVWVSEVMLQQTQVATVINYYTGWMQKWPTLQDLASASLEEVNQLWAGLGYYSRGRRLQEGARKVVEELGGHMPRTAETLQQLLPGVGRYTAGAIASIAFGQATGVVDGNVARVLCRVRAIGADPSSTLVSQQLWGLAQQLVDPARPGDFNQAAMELGATVCTPQRPLCSQCPVESLCRARQRVEQEQLLASGSLSGSPDVEECAPNTGQCHLCLPPSEPWDQTLGVVNFPRKASRKPPREESSATCVLEQPGALGAQILLVQRPNSGLLAGLWEFPSVTWEPSEQLQRKALLQELQRWAGPLPATHLRHLGEVVHTFSHIKLTYQVYGLALEGQTPVTTVPPGARWLTQEEFHTAAVSTAMKKVFRVYQGQQPGTCMGSKRSQVSSPCSRKKPRMGQQVLDNFFRSHISTDAHSLNSAAQ

Variants of: B1
Experiment: 8OG:A repair function score (normalized; synonymous = 0, nonsense = -1) (normalized log-likelihood score); higher = more repair activity (WT-like)
Conditions: with 8OG:A DNA repair reporter (GFP) in HEK-293 MUTYH KO cells
Method: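 Saturation mutagenesis (NNN codon scan) of the MUTYH cDNA (521-aa nuclear isoform NM_001048174.1 / NP_001041639), stably expressed under doxycycline induction in HEK-293 MUTYH knockout cells. Cells were co-transfected with an 8OG:A-bearing GFP repair reporter plus mCherry and sorted 72 h later into GFP+ and GFP− bins, three replicates per tile. The Rosace log2 enrichment (GFP+ vs GFP−) was converted per tile to a normalized function score with synonymous variants centered at 0 and nonsense variants (codons 1-471) at -1; low-abundance variants were removed.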

8OG:A repair function score: each site, then its substitutions
R2: K 0.125, V 0.0618, G 0.122, S 0.049, T 0.0193, Y -0.155, H -0.00678, Q -0.0466, L -0.084, N 0.108, I 0.124, M -0.169, D -0.112, W -0.00849, C -0.529, A -0.0711, F 0.0866, P -0.00444
G39: I -0.0353, L 0.0565, R 0.0558, T 0.103, C -0.0254, S 0.0658, M 0.24, V 0.0274, Y -0.0346, E 0.0199, F 0.045, D 0.118, P 0.0274, H -0.44, N 0.241, K 0.121, A 0.101
Q50: T -0.147, L -0.0733, F -0.0563, C 0.0151, D 0.088, N 0.00105, I -0.135, A -0.00978, G -0.0798, W 0.014, H -0.0435, E 0.0122, R 0.0284, S 0.0939, M -0.0659, Y -0.0626, V -0.0513, K 0.0673, P 0.126
P34: C 0.0156, W 0.133, V -0.0896, G -0.0669, L 0.131, K 0.166, H 0.142, E 0.0965, D 0.128, M 0.176, Q 0.146, A -0.039, R 0.0769, T -0.0245, S 0.0874, N 0.0767, I -0.0342
S52: A 0.00623
L49: I -0.0224, N 0.241, K -0.236, T 0.0602, F -0.0825, D 0.0266, M 0.233, A 0.0219, P 0.109, R 0.00838, W -0.109, H 0.0564, Y -0.0309, V -0.0831, E 0.0582, Q -0.00358, G -0.027, C 0.125, S 0.027
A51: R 0.00957, F -0.116, M -0.607, K 0.124, Q 0.214, D 0.029, S 0.0659, V 0.0738, N -0.00641, C 0.0297, L -0.036, G -0.0113, E 0.0222, Y 0.00468, W 0.101, P 0.142, I -0.041, H 0.0322
A41: C -0.0569, N 0.0813, R 0.0859, G -0.0656, Q 0.168, T 0.0139, I 0.0909, S -0.048, Y -0.107, P 0.00904, F 0.0355, K -0.0537, H -0.0884, E -0.0689, W -0.0976, V -0.0754, M -0.0227, D -0.0561, L -0.0575
V47: A 0.101, R -0.00231, M -0.0812, I 0.0706, C 0.0227, W 0.0191, P -0.0988, Q -0.0401, E -0.116, F 0.0442, K 0.00868, S -0.0698, T -0.0192, D -0.0274, Y -0.0242, G -0.0668, H 0.0522, N 0.0108, L -0.135
Q43: G -0.0204, D 0.0131, K 0.0479, W -0.0384, V -0.0464, E 0.0951, F 0.0374, N -0.0614, P 0.054, A 0.0603, T 0.0245, M 0.0733, C 0.138, Y -0.0469, H 0.0802, R 0.0791, I 0.0991, S -0.0281, L 0.0948
P44: A -0.142, S -0.107, G -0.111, D -0.119, L -0.133, I -0.165, K 0.00377, R -0.0646, Y -0.212, C -0.247, M -0.107, W -0.102, T 0.166, V -0.0774, Q -0.113, E -0.0552, H -0.0386, F -0.202, N -0.0778
R42: Q 0.102, K 0.0776, F 0.00894, W 0.0271, E 0.021, G 0.0112, T -0.0609, V 0.0781, L -0.0705, M -0.196, C 0.0324, D 0.0284, S 0.0235, I -0.00552, A 0.112, P -0.176, H 0.0289, Y 0.0172, N 0.0413
A6: C -0.117, V 0.0405, P -0.0227, E 0.137, K -0.0201, I -0.177, F 0.0517, N -0.0265, D -0.15, Y -0.0552, G 0.0165, R -0.0747, M -0.168, Q 0.0112, T 0.0379, H -0.0145, S -0.117, L 0.01
V48: T -0.0154, H 0.0666, C 0.0424, I 0.0882, N 0.0431, R 0.0418, S -0.0148, E -0.122, F -0.0263, Y -0.141, G 0.0279, Q 0.0497, A 0.00435, M -0.0648, P -0.11, L -0.0249, K 0.119, D 0.0961, W 0.0774
K3: P 0.0268, M -0.238, S -0.0766, L 0.0859, T 0.144, I -0.161, D -0.233, N 0.00918, E -0.174, Y 0.137, G 0.00287, A 0.108, Q 0.107, V -0.0444, C -0.0701, F 0.00169, H 0.0273, W -0.0484, R -0.0184
E45: K -0.0451, M 0.00456, R 0.0409, F -0.059, N 0.01, V -0.122, Q -0.0405, L -0.0561, G 0.13, T 0.0748, D 0.155, S -0.0822, C -0.0211, H 0.0965, A -0.024, Y 0.0286, I -0.0125, P -0.0802
E46: I 0.0225, K -0.0383, S -0.0996, M -0.119, G -0.0545, F 0.0911, C 0.0656, N -0.0764, P 0.0495, H -0.0875, A 0.0651, R 0.0933, L -0.211, W -0.0064, D 0.0496, T 0.134, Q 0.0688, Y -0.0657, V 0.0528
A36: C 0.066, H 0.146, P 0.00994, D -0.0511, M -0.076, R -0.15, G -0.011, K -0.187, E 0.00159, W -0.0681, L -0.0486, F 0.0951, N -0.0203, T 0.118, V 0.0896, Q -0.0644, I -0.0893, S -0.0113
L40: G 0.0939, W 0.123, C -0.0146, D 0.21, S 0.073, Y 0.179, A 0.139, I -0.0464, Q 0.0733, E 0.0138, K 0.127, V 0.0896, F 0.134, H 0.00147, P 0.00594, T 0.087, N 0.042, M 0.227, R 0.0698
